# Publication PMC10239968, “[^18F]AlF-NOTA-ADH-1: A new PET molecular radiotracer for imaging of N-cadherin-positive tumors” (Frontiers in Oncology, 2023)
# Key:
# in vivo = assay: in vivo; set-up: species or system Kunming mice; settings: mouse; for tissue uptake at 2 min / tissue uptake at 5 min / tissue uptake at 0.25 h / tissue uptake at 0.5 h / tissue uptake at 1 h / tissue uptake at 2 h: Kunming, total radioactivity
# Procedure: Thirty SPF Kunming mice weighing 18-20g were randomly divided into 6 groups (n=5). As described above, [^18F]AlF-NOTA-ADH-1 was purified and separated by HPLC analysis. Each mouse was injected with a dose of 0.74MBq (20μCi) through a caudal vein. Blood was collected from the orbit, the mice were sacrificed, and the brain, heart, lung, liver, spleen, kidney, stomach, intestine, muscle, bone and other organs were taken at 2 min, 5 min, 15 min, 30 min, 60min and 120min after injection. The radioactivity results were recorded as injected radioactivity per gram of tissue (% ID/g) corrected for background and decay.
# [1] = type: physicochemical
# Procedure: The partition coefficient of [^18F]AlF-NOTA-ADH-1 was measured by assessing the distribution of radioactivity in 1-octanol and phosphate buffer in a 2 mL centrifuge tube. 20µL of [^18F]AlF-NOTA-ADH-1 solution was added to a tube containing 0.5 mL each of 1-octanol and PBS. The mixture was vortexed and centrifuged (5,000 r/min) for 5 min. A total of 2 samples (50 μL) were collected from each layer and were assayed in a γ counter. Partition coefficients (log Po/w) are shown as the log counts in 1-octanol vs. PBS layers (n=3).
# BxPC3 tumor xenografts = assay: Micro-PET imaging, BxPC3 tumor model; type: in vivo, nude mice; settings: BxPC3-bearing tumor model mice, 60 min p.i.
# Procedure: [^18F]AlF-NOTA-ADH-1 was evaluated by micro-PET imaging on nude mice bearing a PDX tumor, SW-480 and BxPC3 tumor xenografts. Each tumor-bearing nude mouse was injected with 3.7MBq [^18F]AlF-NOTA-ADH-1 via the tail vein. After being anesthetized with isoflurane, tumor-bearing nude mice were imaged using a micro-PET/CT scanner at 60 minutes post-injection under continuous isoflurane inhalation using a nasal mask with a connecting tube. Micro-PET/CT scanning was performed after low-dose 3D acquisition CT scanning at 10 minutes per bed. A blocking study was conducted, in which a saturating dose of unlabeled ADH-1 (20 mg/kg of mouse body weight) was intravenously administered 60 min before the intravenous injection of [^18F]AlF-NOTA-ADH-1.
# The three-dimensional volume of interest (VOI) was used to assess the standard uptake value (SUV) of selected organs. The Seimens Inveon analysis software configured with micro-PET/CT was used to delineate the region of interest along the edge of the tumor and each normal tissue on the PET image. Subsequently, the SUV of each region of interest was measured, and the tumor/non-tumor ratio (T/NT) between the tumor and normal tissue was measured.
# [2] = iv, 0.74 MBq (20 uCi) per mouse, Blood radioactive concentration
# [3] = iv, 0.74 MBq (20 uCi) per mouse, Bone uptake
# [4] = iv, 0.74 MBq (20 uCi) per mouse, Brain uptake
# [5] = iv, 0.74 MBq (20 uCi) per mouse, Intestines uptake
# [6] = iv, 0.74 MBq (20 uCi) per mouse, Muscle uptake
# [7] = iv, 0.74 MBq (20 uCi) per mouse, Skin uptake
compound,measurement,setting,value
CC(=O)N[C@H]1CSSC[C@@H](C(=O)NCCNC(=O)CN2CCN(CC(=O)O)CCN(CC(=O)O)CC2)NC(=O)[C@H](C(C)C)NC(=O)[C@H](C)NC(=O)[C@H](Cc2c[nH]cn2)NC1=O [[^18F]AlF-NOTA-ADH-1],tissue uptake at 2 min,in vivo; [2],18.8 ± 1.95 %ID/g
same,tissue uptake at 5 min,in vivo; [2],8.77 ± 1.37 %ID/g
same,tissue uptake at 0.25 h,in vivo; [2],3.79 ± 1.19 %ID/g
same,tissue uptake at 0.5 h,in vivo; [2],2.28 ± 0.81 %ID/g
same,tissue uptake at 1 h,in vivo; [2],2.15 ± 0.18 %ID/g
same,tissue uptake at 2 h,in vivo; [2],1.04 ± 0.36 %ID/g
same,tissue uptake at 2 min,in vivo; [3],5.3 ± 0.94 %ID/g
same,tissue uptake at 5 min,in vivo; [3],6.71 ± 0.62 %ID/g
same,tissue uptake at 0.25 h,in vivo; [3],3.72 ± 0.29 %ID/g
same,tissue uptake at 0.5 h,in vivo; [3],3.09 ± 0.26 %ID/g
same,tissue uptake at 1 h,in vivo; [3],1.51 ± 0.36 %ID/g
same,tissue uptake at 2 h,in vivo; [3],1.38 ± 0.73 %ID/g
same,tissue uptake at 2 min,in vivo; [4],1.05 ± 0.25 %ID/g
same,tissue uptake at 5 min,in vivo; [4],0.87 ± 0.3 %ID/g
same,tissue uptake at 0.25 h,in vivo; [4],0.46 ± 0.1 %ID/g
same,tissue uptake at 0.5 h,in vivo; [4],0.39 ± 0.1 %ID/g
same,tissue uptake at 1 h,in vivo; [4],0.22 ± 0.05 %ID/g
same,tissue uptake at 2 h,in vivo; [4],0.58 ± 0.68 %ID/g
same,tissue uptake at 2 min,"in vivo; iv, 0.74 MBq (20 uCi) per mouse, Heart uptake",9.15 ± 0.91 %ID/g
same,tissue uptake at 2 min,in vivo; [5],5.39 ± 0.84 %ID/g
same,tissue uptake at 5 min,in vivo; [5],6.06 ± 1.42 %ID/g
same,tissue uptake at 0.25 h,in vivo; [5],5.73 ± 0.64 %ID/g
same,tissue uptake at 0.5 h,in vivo; [5],6.28 ± 0.59 %ID/g
same,tissue uptake at 1 h,in vivo; [5],5.27 ± 1.09 %ID/g
same,tissue uptake at 2 h,in vivo; [5],4.18 ± 0.53 %ID/g
same,tissue uptake at 2 min,in vivo; [6],3.97 ± 0.56 %ID/g
same,tissue uptake at 5 min,in vivo; [6],5.91 ± 1.16 %ID/g
same,tissue uptake at 0.25 h,in vivo; [6],2.79 ± 0.68 %ID/g
same,tissue uptake at 0.5 h,in vivo; [6],3.32 ± 1.77 %ID/g
same,tissue uptake at 1 h,in vivo; [6],1.08 ± 0.21 %ID/g
same,tissue uptake at 2 h,in vivo; [6],1.22 ± 0.7 %ID/g
same,tissue uptake at 2 min,in vivo; [7],5.6 ± 0.85 %ID/g
same,tissue uptake at 5 min,in vivo; [7],5.08 ± 2.74 %ID/g
same,tissue uptake at 0.25 h,in vivo; [7],3.11 ± 1.47 %ID/g
same,tissue uptake at 0.5 h,in vivo; [7],2.59 ± 0.96 %ID/g
same,tissue uptake at 1 h,in vivo; [7],1.85 ± 1.48 %ID/g
same,tissue uptake at 2 h,in vivo; [7],1.1 ± 0.96 %ID/g
same,tissue uptake at 5 min,"in vivo; iv, 0.74 MBq, Heart uptake",7.54 ± 2.08 %ID/g
same,tissue uptake at 0.25 h,"in vivo; iv, 0.74 MBq, Heart uptake",3.57 ± 0.82 %ID/g
same,tissue uptake at 0.5 h,"in vivo; iv, 0.74 MBq, Heart uptake",3.64 ± 0.66 %ID/g
same,tissue uptake at 1 h,"in vivo; iv, 0.74 MBq, Heart uptake",1.19 ± 0.7 %ID/g
same,tissue uptake at 2 h,"in vivo; iv, 0.74 MBq, Heart uptake",1.01 ± 0.15 %ID/g
same,tissue uptake at 2 min,"in vivo; iv, 0.74 MBq, Kidney uptake",24.9 ± 1.12 %ID/g
same,tissue uptake at 5 min,"in vivo; iv, 0.74 MBq, Kidney uptake",36.5 ± 2 %ID/g
same,tissue uptake at 0.25 h,"in vivo; iv, 0.74 MBq, Kidney uptake",22.1 ± 1.43 %ID/g
same,tissue uptake at 0.5 h,"in vivo; iv, 0.74 MBq, Kidney uptake",25.7 ± 1.17 %ID/g
same,tissue uptake at 1 h,"in vivo; iv, 0.74 MBq, Kidney uptake",22.2 ± 1.92 %ID/g
same,tissue uptake at 2 h,"in vivo; iv, 0.74 MBq, Kidney uptake",15.2 ± 0.96 %ID/g
same,tissue uptake at 2 min,"in vivo; iv, 0.74 MBq, Liver uptake",8.01 ± 1.26 %ID/g
same,tissue uptake at 5 min,"in vivo; iv, 0.74 MBq, Liver uptake",7.09 ± 2.03 %ID/g
same,tissue uptake at 0.25 h,"in vivo; iv, 0.74 MBq, Liver uptake",14.8 ± 1.11 %ID/g
same,tissue uptake at 0.5 h,"in vivo; iv, 0.74 MBq, Liver uptake",16.1 ± 2.34 %ID/g
same,tissue uptake at 1 h,"in vivo; iv, 0.74 MBq, Liver uptake",21.6 ± 3.53 %ID/g
same,tissue uptake at 2 h,"in vivo; iv, 0.74 MBq, Liver uptake",13.7 ± 2.35 %ID/g
same,tissue uptake at 2 min,"in vivo; iv, 0.74 MBq, Lung uptake",6.26 ± 1.29 %ID/g
same,tissue uptake at 5 min,"in vivo; iv, 0.74 MBq, Lung uptake",4.74 ± 1.69 %ID/g
same,tissue uptake at 0.25 h,"in vivo; iv, 0.74 MBq, Lung uptake",3.05 ± 0.4 %ID/g
same,tissue uptake at 0.5 h,"in vivo; iv, 0.74 MBq, Lung uptake",2.15 ± 0.27 %ID/g
same,tissue uptake at 1 h,"in vivo; iv, 0.74 MBq, Lung uptake",2.19 ± 0.42 %ID/g
same,tissue uptake at 2 h,"in vivo; iv, 0.74 MBq, Lung uptake",1.62 ± 0.35 %ID/g
same,tissue uptake at 2 min,"in vivo; iv, 0.74 MBq, Spleen uptake",3.84 ± 1.47 %ID/g
same,tissue uptake at 5 min,"in vivo; iv, 0.74 MBq, Spleen uptake",5.09 ± 1.29 %ID/g
same,tissue uptake at 0.25 h,"in vivo; iv, 0.74 MBq, Spleen uptake",3.08 ± 0.55 %ID/g
same,tissue uptake at 0.5 h,"in vivo; iv, 0.74 MBq, Spleen uptake",2.66 ± 0.22 %ID/g
same,tissue uptake at 1 h,"in vivo; iv, 0.74 MBq, Spleen uptake",1.81 ± 0.57 %ID/g
same,tissue uptake at 2 h,"in vivo; iv, 0.74 MBq, Spleen uptake",1.24 ± 0.3 %ID/g
same,tissue uptake at 2 min,"in vivo; iv, 0.74 MBq, Stomach uptake",5.63 ± 1.98 %ID/g
same,tissue uptake at 5 min,"in vivo; iv, 0.74 MBq, Stomach uptake",7.27 ± 1.89 %ID/g
same,tissue uptake at 0.25 h,"in vivo; iv, 0.74 MBq, Stomach uptake",4.26 ± 0.55 %ID/g
same,tissue uptake at 0.5 h,"in vivo; iv, 0.74 MBq, Stomach uptake",4.78 ± 0.98 %ID/g
same,tissue uptake at 1 h,"in vivo; iv, 0.74 MBq, Stomach uptake",2.32 ± 0.56 %ID/g
same,tissue uptake at 2 h,"in vivo; iv, 0.74 MBq, Stomach uptake",1.55 ± 0.2 %ID/g
same,In vivo defluorination (bone uptake),in vivo,no obvious in vivo defluorination
same,Blood clearance,in vivo; iv,rapid blood clearance
same,Partition coefficient (log Po/w),[1],-2.45 ± 0.09
same,Micro-PET T/Bone,BxPC3 tumor xenografts,0.055 ± 0.022
same,Micro-PET T/Lung,BxPC3 tumor xenografts,0.291 ± 0.195
same,Micro-PET tumor/muscle ratio,BxPC3 tumor xenografts,1.018 ± 0.498
